Laboratory results taken from patent US20100292442A1 (Amgen, published 2010).
Read-outs that look alike come from different tables or passages of the source. Values belong to the binder of their own block, whether it stands above or below them.

Tests used:
[1] = biological target: T1, cynomolgus IL-17RA on cells (cynomolgus); experiment: FACS competition, non-clonal hybridoma supernatant; MFI of biotin-huIL-17A (competitor, 500 ng/ml) on cyno IL-17RA+ CHO cells
T1 construct: whole, on cells; also called CHO-cynoIL-17RA; cyno IL-17RA+ CHO cells

huIL-17RA-FLAG-polyHis = biological target: T2, huIL-17RA-FLAG-polyHis (human, UniProt Q96F46 33-320); experiment: Luminex binning; bead huIgG control (f15) + IL-17RA [D00007 Fig. 8B]
T2 construct: also called wild-type IL-17RA-FLAG-polyHis; HuIL-17RA-Flag-pHis
Method: Cross-competition studies were performed to determine IL-17RA binding characteristics of exemplary IL-17RA neutralizing antibodies. […] The method employed the Bio-Plex Workstation and software (BioRad, Hercules, Calif.), as well as reagents from Luminex® Corp. (Austin, Tex.). The manufacturers' basic protocols were followed except where noted below (see www.bio-rad.com and www.luminexcorp.com for details). […] The mouse-anti-human IgG coating was evaluated and the beads quantified by FACS. Each bead code was separately incubated with 10 ul of anti-IL-17RA antibody for 1 hour at room temperature and then washed. The beads were pooled and then dispensed to a 96-well filter plate (Millipore, Billerica, Mass., product #MSBVN1250). […] The PE-tagged monovalent antibody will detect the presence of the second mAb added to the well, but not the first mAb captured by the monovalent mouse-anti-human IgG antibody. Beads were resuspended in 120 ul PBSAT and at least 100 events/bead code were collected on the Bio-Plex workstation as per the manufacturer's recommended protocol.

[2] = biological target: T1, cynomolgus IL-17RA on cells; experiment: FACS competition, non-clonal hybridoma supernatant; MFI of biotin-huIL-17A (competitor, 500 ng/ml) on cyno IL-17RA+ CHO cells; remark: listed apart in the source
Method: (§1) Non-clonal hybridoma supernatants were prepared in volumes of 1-2 mls (the Ig concentrations were not determined for these supernatants). […] Anti-IL-17RA non-clonal hybridomas were selected for sub-cloning based on their performance in the CHO-IL-17RA FACS assay and HFF bioassay.

[3] = biological target: T3, Human IL-17RA full-length expressed on the surface of cells (human, UniProt Q96F46 33-866); experiment: FACS competition, non-clonal hybridoma supernatant; % cells positive for biotin-huIL-17A (competitor, 500 ng/ml) on huIL-17RA+ CHO cells
T3 construct: used here for over-expressing CHO cells (FACS) and for the native receptor on human fibroblasts (bioassays); also called IL-17RA CHO cells; CHO-huIL-17RA
Method: as §1

[4] = biological target: T3, Human IL-17RA full-length expressed on …; experiment: FACS competition, non-clonal hybridoma supernatant; % cells positive for biotin-huIL-17A (competitor, 500 ng/ml) on huIL-17RA+ CHO cells (second % positive column)
Method: as §1

[5] = biological target: T1, cynomolgus IL-17RA on cells; experiment: FACS competition, non-clonal hybridoma supernatant; MFI of biotin-huIL-17A (competitor, 500 ng/ml) on cyno IL-17RA+ CHO cells; remark: listed apart in the source
[6] = biological target: T1, cynomolgus IL-17RA on cells; experiment: cell-based or functional assay

B1: AMH22/AML22 (antibody, V domains shown)
VH: QVQLVQSGAEVKKPGASVKVSCKASGYTFTRYGISWVRQAPGQGLEWMGWISAYSGNTNYAQKLQGRVTMTTDTSTSTAYMELRSLRSDDTAVYYCARRQLYFDYWGQGTLVTVSS
VL: EIVMTQSPATLSVSPGERVTLSCRASQSVSSNLAWFQQKPGQAPRPLIYDASTRAAGIPARFSGSGSGTDFTLTISSLQSEDFAVYYCQQYDNWPLTFGGGTKVEIK
notes: Fully human mAb from IgG2 XenoMouse hybridomas; also called AM-22
MFI [1]: 18 MFI

B4: AMH17/AML17 (antibody, V domains shown)
VH: QVQLVQSGAEVKKPGAAVKVSCKATGYTLTSYGISWVRQAPGQGLEWMGWISAYSGNTKYAQKLQGRVTMTTDTSTSTAYMELRSLRSDDTAVYYCARKQLVFDYWGQGTLVTVSS
VL: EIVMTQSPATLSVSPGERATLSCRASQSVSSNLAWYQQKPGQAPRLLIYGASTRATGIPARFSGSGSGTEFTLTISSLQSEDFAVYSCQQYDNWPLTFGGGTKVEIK
notes: Fully human mAb from IgG2 XenoMouse hybridomas; also called AM-17
normalized MFI (huIL-17RA-FLAG-polyHis): 56
MFI [2]: 8 MFI
% positive [3]: 1.75%
% positive [4]: 1.23%

B7: AMH21/AML21 (antibody, V domains shown)
VH: EVQLVESGGGSVQPGGSLRLSCAASGFTFSSYSMNWVRQAPGKGLEWVSIISSRSSIIHYADSVKGRFTISRDNAKNSLYLQMNSLRDEDTAVYYCARPKVGGGMDVWGQGTTVTVSS
VL: DIQMTQSPSSLSASVGDRVTITCRASQGISNYLAWYQQKPGKFPELLIYAASTLQSGVPSRFSGSGSGTDFTLTISSLQPEDVATYYCQKYNRAPFTFGPGTKVDIK
notes: Fully human mAb from IgG2 XenoMouse hybridomas; also called AM-21
normalized MFI (huIL-17RA-FLAG-polyHis): 28
MFI [5]: 6 MFI

B12: AMH4/AML4 (antibody, V domains shown)
VH: QVQLVESGGGVVQPGRSLRLSCAASGINFSSYGMHWVRQAPGKGLEWVAVIWYDGSNKHYADSVKGRFTISRDNSKNTLYLQMNSLRAEDTAVYYCARDTGVYWGQGTLVTVSS
VL: not shown
notes: Fully human mAb from IgG2 XenoMouse hybridomas
normalized MFI (huIL-17RA-FLAG-polyHis): 37

B14: AMH7/AML7 (antibody, V domains shown)
VH: QVQLVQSGAEVKKPGASVKVSCKASGYTLTRYGISWVRQAPGQGLEWMGWISAYNGNTNYAQKLQGRVTMTTDTSTSTAYMELRSLRSDDTAVYYCARRDYDILTGYYNGFDPWGQGTLVTVSS
VL: DIQMTQSPSSLSASVGDRVTITCRASQGIRNDLGWYQQKPGKAPKRLIYAASSLQSGVPSRFSGSGSGTEFTLTISSLQPEDFATYYCLQHKSYPLTFGGGTKVEIK
notes: as for B12
normalized MFI (huIL-17RA-FLAG-polyHis): 123

B15: AMH6/AML6 (antibody, V domains shown)
VH: QVQLVQSGAEVKKPGASVKVSCKASGYTLTRYGISWVRQAPGQGLEWMGWISAYNGNTNYAQKLQGRVTMTTDTSTSTAYMELRSLRSDDTAVYYCARRDYDILTGYYNGFDPWGQGTLVTVSS
VL: DIQMTQSPSSLSASVGDRVTITCRASQGIRNDLGWYQQKPGKAPKRLIYAASSLQSGVPSRFSGSGSGTEFTLTISSLQPEDFATYYCLQHKSYPLTFGGGTKVEIK
notes: as for B12
normalized MFI (huIL-17RA-FLAG-polyHis): 26

B16: AMH1/AML1 (antibody, V domains shown)
VH: QVQLQESGPGLVKPSETLSLTCTVSGGSISNYYWNWIRQSPGKGLEWIGDIYYSGSTNYNPSLKSRVTISVDTSKNQFSLKLSSVTTADTAVYYCARDGELANYYGSGSYQFYYYYGMDVWGQGTTVTVSS
VL: DILMTQSPSSLSASVGDRVTITCRASQGIRNDLGWYQQKPGKAPKRLIYAASSLQSGVPSRFSGSGSGTEFTLTISSLQPEDFATYYCLQHNSNPFTFGPGTKVDIK
notes: as for B12
MFI [1]: 11 MFI

B17: AMH5/AML5 (antibody, IgG2, V domains shown)
VH: QVQLQESGPGLVKPSETLPLTCTVSGGSIRSYYWSWIRQPAGKGLEWIGRIYRSGNTIYNPSLKSRVTMSIDTSKNQFSLTLSSVTAADTAVYYCARENYSESSGLYYYYGMDVWGQGTTVTVSS
VL: DIQMTQSPSSLSASVGDRVTITCRASQGIRNDLGWYQQKPGKAPKRLIYAASSFQSGVPSRFSGSGSGTGFTLTISSLQPEDFATYYCLQHNSYPPTFGQGTKVEIK
notes: Fully human mAb from IgG2 XenoMouse hybridomas; also called AM-5
MFI [1]: 9 MFI

B18: AMH8/AML8 (antibody, V domains shown)
VH: QVQLVQSGAEVKKPGASVKVSCKASGNTFTGYGISWVRQAPGQGLEWMGWISAYNGNTNYAQNLQGRVTMTTDTSTSTAYMELRSLRSDDTAVYYCARRDYDILTGYYNGFDPWGQGTLVTVSS
VL: DIQMTQSPSSLSASVGDRVTITCRASQGIRNDLGWYQQKPGKAPKRLIYAASSLQSGVPSRFSGSGSGTEFTLTISSLQPEDFATYYCLQHKSYPLTFGGGTKVEIK
notes: as for B12
normalized MFI (huIL-17RA-FLAG-polyHis): 54

Further lines, results first:

normalized MFI (huIL-17RA-FLAG-polyHis): 32
MFI [2]: 6 MFI
% positive [3]: 1%
% positive [4]: 1.36%
B2: AMH12/AML12 (antibody, V domains shown)
VH: QVQLVQSGAEVKKPGASVKVSCKASGYTLTSYGISWVRQAPGQGLEWMGWISTYKGNTNYAQKLQGRVTMTTDTSTSTAYMELRSLRSDDTAVYYCARKQLVFDYWGQGTLVTVSS
VL: EIVMTQSPATLSVSPGERATLSCRASQSISSSLAWYQQKPGQAPRLLIYGASTRATGIPARFSGSGSGTEFTLTISSLQSENFAVYYCQQYDNWPLTFGGGTKVEIK
notes: Fully human mAb from IgG2 XenoMouse hybridomas; also called AM-12

MFI [5]: 6 MFI
B3: AMH15/AML15 (antibody, IgG2, V domains shown)
VH: QVQLVESGGGVVQPGRSLRLSCAASGFTFSSYGMQWVRQAPGKGLEWVAVIWYDGNKKYYADSVKGRFTISRDNSKNTLYLQMNSLRAEDTAVYYCARGRVRDYYYGMDVWGQGTTVTVSS
VL: EIVMTQSPATLSVSPGERVTLSCRASQSVSSNLAWFQQKPGQAPRPLIYDASTRAAGIPARFSGSGSGTDFTLTISSLQSEDFAVYYCQQYDNWPLTFGGGTKVEIK
notes: Fully human mAb from IgG2 XenoMouse hybridomas; also called AM-15

normalized MFI (huIL-17RA-FLAG-polyHis): 95
MFI [2]: 6 MFI
% positive [3]: 1.84%
% positive [4]: 0.76%
B5: AMH16/AML16 (antibody, V domains shown)
VH: QVQLVQSGAEVKKPGASVKVSCKASGYTFTSYGISWVRQAPGQGLEWMGWISAYNGNTKYAQKLQGRVTMTTDTSTSTVYMELRSLRSDDTAVYYCARKQLVFDYWGQGTLVTVSS
VL: EIVMTQSPATLSVSPGERATLSCRASQSISTSLAWYQQKPGQAPRLLIYGTSTRATGIPARFSGSGSGTEFTLTISSLQSEDFAVYFCQQYDIWPLTFGGGTKVEIK
notes: Fully human mAb from IgG2 XenoMouse hybridomas; also called AM-16

MFI [5]: 10 MFI
IC50, cynomolgous IL-17A-induced IL-6 production from JTC-12 cells [6]: ~1.2 nM
B6: AMH14/AML14 (antibody, V domains shown)
VH: QVQLVQSGAEVKKPGASVKVSCKASGYTFTRYGISWVRQAPGQGLEWMGWISTYSGNTNYAQKLQGRVTMTTDTSTSTAYMELRSLRSDDTAVYYCARRQLYFDYWGQGTLVTVSS
VL: EIVMTQSPATLSVSPGERATLSCRASQSVSSNLAWFQQKPGQAPRPLIYDASTRATGVPARFSGSGSGTDFTLTISSLQSEDFAVYYCQQYDNWPLTFGGGTKVEIK
notes: Fully human mAb from IgG2 XenoMouse hybridomas; also called AM-14

normalized MFI (huIL-17RA-FLAG-polyHis): 50
B8: AMH20/AML20 (antibody, V domains shown)
VH: EVQLVESGGGLVQPGGSLRLSCAASGFTFSSYSMNWVRQAPGKGLEWVSFISARSSTIYYADSVKGRFTISRDNAKNSLYLQMNSLRDEDTAVYYCARPKVGGGMDVWGQGTTVTVSS
VL: DIQMTQSPSSLSASVGDRVTITCRASQGISNYLAWYQQKPGKFPELLIYAASTLQSGVPSRFSGSGSGTDFTLTISSLQPEDVATYYCQKYNRAPFTFGPGTKVDIK
notes: Fully human mAb from IgG2 XenoMouse hybridomas; also called AM-20

normalized MFI (huIL-17RA-FLAG-polyHis): -5
B9: AMH18/AML18 (antibody, V domains shown)
VH: QVQLVQSGAEVKKPGASVKVSCKASGYSFTDYYMHWVRQAPGQGLEWMGWMHPNSGGTDLAQRFQGRVTMTRDTSISTAYMELSRLRSDDTAVYYCARGGYCSTLSCSFYWYFDLWGRGTLVTVSS
VL: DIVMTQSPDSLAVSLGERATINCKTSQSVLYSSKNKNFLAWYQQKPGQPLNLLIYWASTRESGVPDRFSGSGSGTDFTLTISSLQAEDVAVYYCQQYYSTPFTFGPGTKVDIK
notes: as for B12

MFI [2]: 6 MFI
% positive [3]: 1.52%
% positive [4]: 0.89%
B10: AMH13/AML13 (antibody, V domains shown)
VH: QVQLVESGGGVVQPGRSLRLSCAASGFTFSSYGMQWVRQAPGKGLEWVAVIWYDGNKKYYADSVKGRFTISRDNSKNTLYLQMNSLRAEDTAVYYCARGRVRDYYYGMDVWGQGTTVTVSS
VL: DIVMTQTPLSLSVTPGQPASIACKSSQSLLHSDGKTYLYWYLQKPGQPPQLLIYEVSTRFSGVPDRFSGSGSGTDFTLKISRVEAEDVGVFYCMQSIQLPLTFGGGTKVEIK
notes: as for B12

normalized MFI (huIL-17RA-FLAG-polyHis): 140
B11: AMH10/AML10 (antibody, V domains shown)
VH: QVQLQESGPGLVKPSQTLSLTCTVSGGSISSGGYYWSWIRQHPGKGLEWIGYIYFSGSAYYNPSLKSRVAISVDTSKNQFSLKLSSVTAADTAVYYCAREYYDSSGYPDAFDIWGQGTMVTVSS
VL: DIQMTQSPSSVSASVGDRVTITCRASQGIRSWLAWYQQKPGKAPKLLIFAASSLQSGVPSRFSGSGSGTEFTLTISSLQPEDFATYYCQQANNFPRTFGQGTKVEIK
notes: Fully human mAb from IgG2 XenoMouse hybridomas; also called AM-10

MFI [1]: 9 MFI
normalized MFI (huIL-17RA-FLAG-polyHis): 84
B13: AMH11/AML11 (antibody, V domains shown)
VH: QVQLVESGGGVVQPGRSLRLSCATSGITFSSYGMHWVRQAPGKGLEWVAVIWYDGSNKYYADSVKGRFTISRDNSKNTLYLQMNSLRAEDTAVYYCARDTKDYWGQGTLVTVSS
VL: EIVMTQSPATLSVSPGERATLSCRASQSVSSNLAWYQQKPGQAPRLLIYGASTRAAGIPARFSGGGSGTAFTLTISNLQSEDFAVYYCQHYINWPKWTFGQGTKVDIK
notes: as for B12
